According to patent publication US20150344570A1 (published 2015):

Target: T1, FcγRIa (human, UniProt P12314 16-292)
T1 construct: extracellular domain; also called FcgRI; 1a
Assay: SPR (Biacore); He Ab relative to HeCon Ab = 100
Procedure: Analysis of interaction between objective antibody and the FcγR was carried out using Biacore T100 (GE Healthcare). HBS-EP+ (GE Healthcare) was used as the running buffer, and the measurement temperature was set to 25° C. Chips produced by immobilizing the antigen peptide by the amine coupling method to a Series S Sencor Chip CM5 (GE Healthcare), or alternatively, chips produced by allowing preliminarily biotinylated antigen peptides to interact with and immobilize onto a Series S Sensor Chip SA (certified) (GE Healthcare) were used. Antibodies of interest were captured onto an antigen peptide-immobilized chip, and allowed to interact to each FcγR diluted with running buffer. To regenerate and repeatedly use the chip, the antibodies captured on the chip were washed off by reacting 10 mM glycine-HCl, pH 1.5.

T1 sequence (P12314 16-292): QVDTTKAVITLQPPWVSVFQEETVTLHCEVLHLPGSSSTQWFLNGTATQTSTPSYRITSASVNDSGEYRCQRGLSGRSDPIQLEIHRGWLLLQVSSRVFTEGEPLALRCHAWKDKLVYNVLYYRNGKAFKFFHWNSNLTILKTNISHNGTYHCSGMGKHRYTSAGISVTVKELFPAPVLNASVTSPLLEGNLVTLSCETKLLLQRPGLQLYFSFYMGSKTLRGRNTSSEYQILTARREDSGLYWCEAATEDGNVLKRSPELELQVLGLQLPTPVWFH

Binder	He/Con_1a
GpH7-A5/GpH7-B3 variant A330_09D/GpL16-k0 (antibody, human IgG1, kappa, also called He Ab A330_09D) heavy 1: not shown heavy 2: not shown light: DIVMTQSPLSLPVTPGEPASISCQASESLVHSNRNTYLHWYLQKPGQSPQLLIYKVSNRFSGVPDRFSGSGSGTDFTLKISRVEAEDVGVYYCSQNTHVPPTFGQGTKVEIERTVAAPSVFIFPPSDEQLKSGTASVVCLLNNFYPREAKVQWKVDNALQSGNSQESVTEQDSKDSTYSLSSTLTLSKADYEKHKVYACEVTHQGLSSPVTKSFNRGEC	109 % of control
GpH7-A5/GpH7-B3 variant E269_16H/GpL16-k0 (antibody, human IgG1, kappa, also called He Ab E269_16H) heavy 1: not shown heavy 2: not shown light: DIVMTQSPLSLPVTPGEPASISCQASESLVHSNRNTYLHWYLQKPGQSPQLLIYKVSNRFSGVPDRFSGSGSGTDFTLKISRVEAEDVGVYYCSQNTHVPPTFGQGTKVEIERTVAAPSVFIFPPSDEQLKSGTASVVCLLNNFYPREAKVQWKVDNALQSGNSQESVTEQDSKDSTYSLSSTLTLSKADYEKHKVYACEVTHQGLSSPVTKSFNRGEC	106 % of control
GpH7-A5/GpH7-B3 variant E333_01G/GpL16-k0 (antibody, human IgG1, kappa, also called He Ab E333_01G) heavy 1: not shown heavy 2: not shown light: DIVMTQSPLSLPVTPGEPASISCQASESLVHSNRNTYLHWYLQKPGQSPQLLIYKVSNRFSGVPDRFSGSGSGTDFTLKISRVEAEDVGVYYCSQNTHVPPTFGQGTKVEIERTVAAPSVFIFPPSDEQLKSGTASVVCLLNNFYPREAKVQWKVDNALQSGNSQESVTEQDSKDSTYSLSSTLTLSKADYEKHKVYACEVTHQGLSSPVTKSFNRGEC	103 % of control
GpH7-A5/GpH7-B3 variant E269_04F/GpL16-k0 (antibody, human IgG1, kappa, also called He Ab E269_04F) heavy 1: not shown heavy 2: not shown light: DIVMTQSPLSLPVTPGEPASISCQASESLVHSNRNTYLHWYLQKPGQSPQLLIYKVSNRFSGVPDRFSGSGSGTDFTLKISRVEAEDVGVYYCSQNTHVPPTFGQGTKVEIERTVAAPSVFIFPPSDEQLKSGTASVVCLLNNFYPREAKVQWKVDNALQSGNSQESVTEQDSKDSTYSLSSTLTLSKADYEKHKVYACEVTHQGLSSPVTKSFNRGEC	103 % of control
GpH7-A5/GpH7-B3 variant E269_03V/GpL16-k0 (antibody, human IgG1, kappa, also called He Ab E269_03V) heavy 1: not shown heavy 2: not shown light: DIVMTQSPLSLPVTPGEPASISCQASESLVHSNRNTYLHWYLQKPGQSPQLLIYKVSNRFSGVPDRFSGSGSGTDFTLKISRVEAEDVGVYYCSQNTHVPPTFGQGTKVEIERTVAAPSVFIFPPSDEQLKSGTASVVCLLNNFYPREAKVQWKVDNALQSGNSQESVTEQDSKDSTYSLSSTLTLSKADYEKHKVYACEVTHQGLSSPVTKSFNRGEC	103 % of control
GpH7-A5/GpH7-B3 variant A330_16H/GpL16-k0 (antibody, human IgG1, kappa, also called He Ab A330_16H) heavy 1: not shown heavy 2: not shown light: DIVMTQSPLSLPVTPGEPASISCQASESLVHSNRNTYLHWYLQKPGQSPQLLIYKVSNRFSGVPDRFSGSGSGTDFTLKISRVEAEDVGVYYCSQNTHVPPTFGQGTKVEIERTVAAPSVFIFPPSDEQLKSGTASVVCLLNNFYPREAKVQWKVDNALQSGNSQESVTEQDSKDSTYSLSSTLTLSKADYEKHKVYACEVTHQGLSSPVTKSFNRGEC	106 % of control
GpH7-A5/GpH7-B3 variant E269_09D/GpL16-k0 (antibody, human IgG1, kappa, also called He Ab E269_09D) heavy 1: not shown heavy 2: not shown light: DIVMTQSPLSLPVTPGEPASISCQASESLVHSNRNTYLHWYLQKPGQSPQLLIYKVSNRFSGVPDRFSGSGSGTDFTLKISRVEAEDVGVYYCSQNTHVPPTFGQGTKVEIERTVAAPSVFIFPPSDEQLKSGTASVVCLLNNFYPREAKVQWKVDNALQSGNSQESVTEQDSKDSTYSLSSTLTLSKADYEKHKVYACEVTHQGLSSPVTKSFNRGEC	107 % of control
GpH7-A5/GpH7-B3 variant E269_06M/GpL16-k0 (antibody, human IgG1, kappa, also called He Ab E269_06M) heavy 1: not shown heavy 2: not shown light: DIVMTQSPLSLPVTPGEPASISCQASESLVHSNRNTYLHWYLQKPGQSPQLLIYKVSNRFSGVPDRFSGSGSGTDFTLKISRVEAEDVGVYYCSQNTHVPPTFGQGTKVEIERTVAAPSVFIFPPSDEQLKSGTASVVCLLNNFYPREAKVQWKVDNALQSGNSQESVTEQDSKDSTYSLSSTLTLSKADYEKHKVYACEVTHQGLSSPVTKSFNRGEC	104 % of control
GpH7-A5/GpH7-B3 variant E269_18N/GpL16-k0 (antibody, human IgG1, kappa, also called He Ab E269_18N) heavy 1: not shown heavy 2: not shown light: DIVMTQSPLSLPVTPGEPASISCQASESLVHSNRNTYLHWYLQKPGQSPQLLIYKVSNRFSGVPDRFSGSGSGTDFTLKISRVEAEDVGVYYCSQNTHVPPTFGQGTKVEIERTVAAPSVFIFPPSDEQLKSGTASVVCLLNNFYPREAKVQWKVDNALQSGNSQESVTEQDSKDSTYSLSSTLTLSKADYEKHKVYACEVTHQGLSSPVTKSFNRGEC	102 % of control
GpH7-A5/GpH7-B3 variant E269_15Y/GpL16-k0 (antibody, human IgG1, kappa, also called He Ab E269_15Y) heavy 1: not shown heavy 2: not shown light: DIVMTQSPLSLPVTPGEPASISCQASESLVHSNRNTYLHWYLQKPGQSPQLLIYKVSNRFSGVPDRFSGSGSGTDFTLKISRVEAEDVGVYYCSQNTHVPPTFGQGTKVEIERTVAAPSVFIFPPSDEQLKSGTASVVCLLNNFYPREAKVQWKVDNALQSGNSQESVTEQDSKDSTYSLSSTLTLSKADYEKHKVYACEVTHQGLSSPVTKSFNRGEC	106 % of control
GpH7-A5/GpH7-B3 variant E269_02A/GpL16-k0 (antibody, human IgG1, kappa, also called He Ab E269_02A) heavy 1: not shown heavy 2: not shown light: DIVMTQSPLSLPVTPGEPASISCQASESLVHSNRNTYLHWYLQKPGQSPQLLIYKVSNRFSGVPDRFSGSGSGTDFTLKISRVEAEDVGVYYCSQNTHVPPTFGQGTKVEIERTVAAPSVFIFPPSDEQLKSGTASVVCLLNNFYPREAKVQWKVDNALQSGNSQESVTEQDSKDSTYSLSSTLTLSKADYEKHKVYACEVTHQGLSSPVTKSFNRGEC	104 % of control
GpH7-A5/GpH7-B3 variant E269_08L/GpL16-k0 (antibody, human IgG1, kappa, also called He Ab E269_08L) heavy 1: not shown heavy 2: not shown light: DIVMTQSPLSLPVTPGEPASISCQASESLVHSNRNTYLHWYLQKPGQSPQLLIYKVSNRFSGVPDRFSGSGSGTDFTLKISRVEAEDVGVYYCSQNTHVPPTFGQGTKVEIERTVAAPSVFIFPPSDEQLKSGTASVVCLLNNFYPREAKVQWKVDNALQSGNSQESVTEQDSKDSTYSLSSTLTLSKADYEKHKVYACEVTHQGLSSPVTKSFNRGEC	104 % of control
GpH7-A5/GpH7-B3 variant A330_14T/GpL16-k0 (antibody, human IgG1, kappa, also called He Ab A330_14T) heavy 1: not shown heavy 2: not shown light: DIVMTQSPLSLPVTPGEPASISCQASESLVHSNRNTYLHWYLQKPGQSPQLLIYKVSNRFSGVPDRFSGSGSGTDFTLKISRVEAEDVGVYYCSQNTHVPPTFGQGTKVEIERTVAAPSVFIFPPSDEQLKSGTASVVCLLNNFYPREAKVQWKVDNALQSGNSQESVTEQDSKDSTYSLSSTLTLSKADYEKHKVYACEVTHQGLSSPVTKSFNRGEC	105 % of control
GpH7-A5/GpH7-B3 variant E269_20W/GpL16-k0 (antibody, human IgG1, kappa, also called He Ab E269_20W) heavy 1: not shown heavy 2: not shown light: DIVMTQSPLSLPVTPGEPASISCQASESLVHSNRNTYLHWYLQKPGQSPQLLIYKVSNRFSGVPDRFSGSGSGTDFTLKISRVEAEDVGVYYCSQNTHVPPTFGQGTKVEIERTVAAPSVFIFPPSDEQLKSGTASVVCLLNNFYPREAKVQWKVDNALQSGNSQESVTEQDSKDSTYSLSSTLTLSKADYEKHKVYACEVTHQGLSSPVTKSFNRGEC	105 % of control
GpH7-A5/GpH7-B3 variant E269_07I/GpL16-k0 (antibody, human IgG1, kappa, also called He Ab E269_07I) heavy 1: not shown heavy 2: not shown light: DIVMTQSPLSLPVTPGEPASISCQASESLVHSNRNTYLHWYLQKPGQSPQLLIYKVSNRFSGVPDRFSGSGSGTDFTLKISRVEAEDVGVYYCSQNTHVPPTFGQGTKVEIERTVAAPSVFIFPPSDEQLKSGTASVVCLLNNFYPREAKVQWKVDNALQSGNSQESVTEQDSKDSTYSLSSTLTLSKADYEKHKVYACEVTHQGLSSPVTKSFNRGEC	103 % of control
GpH7-A5/GpH7-B3 variant E269_05P/GpL16-k0 (antibody, human IgG1, kappa, also called He Ab E269_05P) heavy 1: not shown heavy 2: not shown light: DIVMTQSPLSLPVTPGEPASISCQASESLVHSNRNTYLHWYLQKPGQSPQLLIYKVSNRFSGVPDRFSGSGSGTDFTLKISRVEAEDVGVYYCSQNTHVPPTFGQGTKVEIERTVAAPSVFIFPPSDEQLKSGTASVVCLLNNFYPREAKVQWKVDNALQSGNSQESVTEQDSKDSTYSLSSTLTLSKADYEKHKVYACEVTHQGLSSPVTKSFNRGEC	102 % of control
GpH7-A5/GpH7-B3 variant A330_11K/GpL16-k0 (antibody, human IgG1, kappa, also called He Ab A330_11K) heavy 1: not shown heavy 2: not shown light: DIVMTQSPLSLPVTPGEPASISCQASESLVHSNRNTYLHWYLQKPGQSPQLLIYKVSNRFSGVPDRFSGSGSGTDFTLKISRVEAEDVGVYYCSQNTHVPPTFGQGTKVEIERTVAAPSVFIFPPSDEQLKSGTASVVCLLNNFYPREAKVQWKVDNALQSGNSQESVTEQDSKDSTYSLSSTLTLSKADYEKHKVYACEVTHQGLSSPVTKSFNRGEC	103 % of control
GpH7-A5/GpH7-B3 variant E269_19Q/GpL16-k0 (antibody, human IgG1, kappa, also called He Ab E269_19Q) heavy 1: not shown heavy 2: not shown light: DIVMTQSPLSLPVTPGEPASISCQASESLVHSNRNTYLHWYLQKPGQSPQLLIYKVSNRFSGVPDRFSGSGSGTDFTLKISRVEAEDVGVYYCSQNTHVPPTFGQGTKVEIERTVAAPSVFIFPPSDEQLKSGTASVVCLLNNFYPREAKVQWKVDNALQSGNSQESVTEQDSKDSTYSLSSTLTLSKADYEKHKVYACEVTHQGLSSPVTKSFNRGEC	105 % of control
GpH7-A5/GpH7-B3 variant E269_14T/GpL16-k0 (antibody, human IgG1, kappa, also called He Ab E269_14T) heavy 1: not shown heavy 2: not shown light: DIVMTQSPLSLPVTPGEPASISCQASESLVHSNRNTYLHWYLQKPGQSPQLLIYKVSNRFSGVPDRFSGSGSGTDFTLKISRVEAEDVGVYYCSQNTHVPPTFGQGTKVEIERTVAAPSVFIFPPSDEQLKSGTASVVCLLNNFYPREAKVQWKVDNALQSGNSQESVTEQDSKDSTYSLSSTLTLSKADYEKHKVYACEVTHQGLSSPVTKSFNRGEC	106 % of control
GpH7-A5/GpH7-B3 variant E269_13S/GpL16-k0 (antibody, human IgG1, kappa, also called He Ab E269_13S) heavy 1: not shown heavy 2: not shown light: DIVMTQSPLSLPVTPGEPASISCQASESLVHSNRNTYLHWYLQKPGQSPQLLIYKVSNRFSGVPDRFSGSGSGTDFTLKISRVEAEDVGVYYCSQNTHVPPTFGQGTKVEIERTVAAPSVFIFPPSDEQLKSGTASVVCLLNNFYPREAKVQWKVDNALQSGNSQESVTEQDSKDSTYSLSSTLTLSKADYEKHKVYACEVTHQGLSSPVTKSFNRGEC	103 % of control
GpH7-A5/GpH7-B3 variant E333_02A/GpL16-k0 (antibody, human IgG1, kappa, also called He Ab E333_02A) heavy 1: not shown heavy 2: not shown light: DIVMTQSPLSLPVTPGEPASISCQASESLVHSNRNTYLHWYLQKPGQSPQLLIYKVSNRFSGVPDRFSGSGSGTDFTLKISRVEAEDVGVYYCSQNTHVPPTFGQGTKVEIERTVAAPSVFIFPPSDEQLKSGTASVVCLLNNFYPREAKVQWKVDNALQSGNSQESVTEQDSKDSTYSLSSTLTLSKADYEKHKVYACEVTHQGLSSPVTKSFNRGEC	103 % of control
